This passage reports Kd results from publication PMC3252277.

Assay [1] deals with fibrillin-1 N-terminal half (Homo sapiens) (UniProt P35555). To be noted: cited from earlier work.
The target of assay [2] is C-terminal recombinant ADAMTS-10 polypeptide (human) (UniProt Q9H324). The assay can be described thus: SPR; C-terminal end of ADAMTS-10 coupled to a chip; soluble C-terminal ADAMTSL-3 at 80-0 nM; 25°C, HBS-EP buffer. A general note: SPR reads the build-up and loss of mass on a sensor chip optically.
Assay [3] has the same target. Kind of assay: SPR; data not shown; N-terminal fibrillin-1 polypeptide with the C-terminal end of ADAMTS-10.

Sequence of UniProt Q9H324 (Q9H324 26-1103): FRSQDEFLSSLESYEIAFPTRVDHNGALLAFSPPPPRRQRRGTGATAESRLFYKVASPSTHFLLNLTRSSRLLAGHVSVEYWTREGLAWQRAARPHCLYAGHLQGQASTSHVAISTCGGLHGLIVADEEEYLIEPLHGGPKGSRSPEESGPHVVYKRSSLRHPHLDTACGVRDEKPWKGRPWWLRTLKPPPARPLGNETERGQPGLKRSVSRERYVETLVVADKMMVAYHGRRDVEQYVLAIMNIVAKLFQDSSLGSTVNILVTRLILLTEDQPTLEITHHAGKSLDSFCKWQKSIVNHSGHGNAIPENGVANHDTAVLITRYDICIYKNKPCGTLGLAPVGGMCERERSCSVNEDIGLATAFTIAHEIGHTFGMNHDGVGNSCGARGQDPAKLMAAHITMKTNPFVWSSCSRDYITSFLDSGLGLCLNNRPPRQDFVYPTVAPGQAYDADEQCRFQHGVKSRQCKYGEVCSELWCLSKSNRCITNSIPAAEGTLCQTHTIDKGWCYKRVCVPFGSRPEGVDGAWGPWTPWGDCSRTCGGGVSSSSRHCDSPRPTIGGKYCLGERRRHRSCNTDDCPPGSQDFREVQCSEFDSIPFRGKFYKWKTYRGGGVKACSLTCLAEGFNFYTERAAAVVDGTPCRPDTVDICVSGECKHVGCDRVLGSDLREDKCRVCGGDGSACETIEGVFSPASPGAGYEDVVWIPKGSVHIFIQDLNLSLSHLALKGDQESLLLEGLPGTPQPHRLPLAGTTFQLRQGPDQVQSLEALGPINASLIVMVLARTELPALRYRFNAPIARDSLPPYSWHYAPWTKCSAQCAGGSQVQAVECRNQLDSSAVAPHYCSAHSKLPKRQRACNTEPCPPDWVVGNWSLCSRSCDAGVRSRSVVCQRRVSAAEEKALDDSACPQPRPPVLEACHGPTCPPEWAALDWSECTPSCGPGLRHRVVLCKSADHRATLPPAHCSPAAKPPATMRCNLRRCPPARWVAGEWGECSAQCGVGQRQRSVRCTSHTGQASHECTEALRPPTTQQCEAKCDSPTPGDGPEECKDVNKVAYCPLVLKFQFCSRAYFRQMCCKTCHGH
Sequence of UniProt P35555 (P35555 45-1527): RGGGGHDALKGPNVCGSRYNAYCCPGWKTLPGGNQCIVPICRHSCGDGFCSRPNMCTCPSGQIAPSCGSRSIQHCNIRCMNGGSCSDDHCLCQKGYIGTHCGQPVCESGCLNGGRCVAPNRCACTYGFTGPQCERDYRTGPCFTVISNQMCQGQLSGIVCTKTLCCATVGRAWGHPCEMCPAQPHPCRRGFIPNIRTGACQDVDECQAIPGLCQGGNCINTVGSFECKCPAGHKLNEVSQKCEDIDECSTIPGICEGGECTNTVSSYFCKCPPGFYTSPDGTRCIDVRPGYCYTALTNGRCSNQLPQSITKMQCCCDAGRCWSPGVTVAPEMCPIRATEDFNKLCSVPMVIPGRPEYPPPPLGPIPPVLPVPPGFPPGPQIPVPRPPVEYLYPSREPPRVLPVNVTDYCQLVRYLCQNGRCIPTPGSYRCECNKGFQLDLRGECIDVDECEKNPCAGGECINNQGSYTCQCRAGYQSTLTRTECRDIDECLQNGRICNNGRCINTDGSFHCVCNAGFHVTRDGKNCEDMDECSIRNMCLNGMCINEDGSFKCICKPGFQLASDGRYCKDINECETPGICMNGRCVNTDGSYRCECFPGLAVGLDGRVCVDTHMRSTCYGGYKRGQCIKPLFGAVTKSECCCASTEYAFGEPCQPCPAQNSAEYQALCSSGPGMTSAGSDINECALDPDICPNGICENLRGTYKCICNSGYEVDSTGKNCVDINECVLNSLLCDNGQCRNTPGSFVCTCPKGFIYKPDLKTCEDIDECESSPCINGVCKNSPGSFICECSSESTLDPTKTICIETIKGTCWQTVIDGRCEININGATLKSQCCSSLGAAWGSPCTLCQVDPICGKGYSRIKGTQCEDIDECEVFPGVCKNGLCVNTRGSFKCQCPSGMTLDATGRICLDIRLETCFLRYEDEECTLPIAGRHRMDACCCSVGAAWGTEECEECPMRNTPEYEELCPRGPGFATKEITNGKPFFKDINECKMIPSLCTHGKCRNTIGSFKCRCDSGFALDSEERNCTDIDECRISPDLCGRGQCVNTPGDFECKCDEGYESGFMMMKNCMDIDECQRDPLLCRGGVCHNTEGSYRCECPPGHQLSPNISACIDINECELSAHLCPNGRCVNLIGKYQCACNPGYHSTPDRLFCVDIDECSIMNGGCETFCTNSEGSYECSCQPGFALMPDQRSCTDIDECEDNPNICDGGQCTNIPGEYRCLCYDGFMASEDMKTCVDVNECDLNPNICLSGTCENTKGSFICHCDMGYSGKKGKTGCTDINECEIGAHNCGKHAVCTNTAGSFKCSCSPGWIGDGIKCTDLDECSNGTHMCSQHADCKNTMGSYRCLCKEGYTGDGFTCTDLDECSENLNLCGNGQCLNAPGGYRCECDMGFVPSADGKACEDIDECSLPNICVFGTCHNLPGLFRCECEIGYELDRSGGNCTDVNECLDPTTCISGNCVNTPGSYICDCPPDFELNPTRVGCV

Usually Kd stands for the concentration at which binding is half-saturated. With ADAMTSL-6 (from UniProt Q6ZMP0), the Kd in assay [1] is 80 nM.

As to “C-terminal ADAMTSL-3 polypeptide (domain or fragment)”, the Kd in assay [2] was found to be 2 nM.

As to “rF90, recombinant N-terminal half of wildtype fibrillin-1 (from UniProt P35555 25-2871) (domain or fragment)”, in assay [3], the Kd was 450 nM.
